# Experimental data from the supplement of paper PMC10567573.
# B1: C22orf15 (parent)
# chain: RGRHEQSPTSRPRKVSSLPPRSC
# B2: TAF7L (parent)
# chain: PDVENEVKRLLRSDAEAVSTRWEV
# Variants of: B1
# Experiment: protein stability index of a GFP-peptide fusion (GPS, HEK-293T) (PSI 1-6); higher = more stable
# Conditions: c terminus: native
# 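Note: lentivirally expressed fusions sorted by FACS into six bins by GFP to DsRed ratio, PSI derived from sequencing read proportions per bin multiplied by bin number.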
row,Variant,protein stability index
1,L18I,2.76
2,L18M,3.65
3,L18Y,2.29
4,L18T,4.07
5,L18W,3.64
6,L18A,1.68
7,L18C,2.88
8,L18H,3.38
9,L18V,3.25
10,L18D,1.5
11,S10A,1.64
12,S10C,2.51
13,S10F,1.99
14,S10P,1.61
15,S10T,2.83
16,S10D,1.09
17,S10R,1.8
18,S10K,1.93
19,S10V,2.85
20,S10H,1.87
21,P19A,4.11
22,P19S,3.79

row,Variant,protein stability index
1,P19M,1.93
2,P19R,2.13
3,P19D,3.23
4,P19T,4.33
5,P19I,1.81
6,P19Y,3.14
7,P19V,2.86
8,P19Q,1.44
9,P19L,3.07
10,P19F,2.19
11,R3V,2.05
12,R3C,3.01
13,R3K,2.27
14,R3L,4.27
15,R3I,3.03
16,R3H,2.76
17,E5N,2.19
18,E5P,2.93
19,E5F,2.19
20,E5L,2.09
21,E5K,2.68
22,E5R,2.19

row,Variant,protein stability index
1,E5Y,4.38
2,R11N,2.35
3,R11W,5
4,R11S,2.31
5,R11A,2.33
6,R11P,3.98
7,R11Q,3.32
8,R11K,3.4
9,R11T,2.51
10,R11G,2.87
11,G2I,2.64
12,G2D,2.01
13,G2F,2.04
14,G2C,1.57
15,G2Y,3.84
16,G2E,1.27
17,G2R,2.96
18,G2Q,2.2
19,G2M,1.9
20,G2S,3.1
21,G2H,1.16

# Variants of: B2
# Experiment: as above
# Conditions: c terminus: a fixed tail appended
row,Variant,protein stability index
1,V7C,3.07
2,V7Q,3.68
3,V7H,4.06
4,V7S,3.56
5,V7N,2.94
6,V7K,4.23
7,V7W,3.13
8,V7Y,3.31
9,V7P,4.57
10,V7I,2.73
11,V7T,4.13
12,V7G,4.2
13,V7M,3.47
14,R9K,4.02
15,R9D,4.41
16,R9H,4.05
17,R9G,3.57
18,R9C,3.39
19,R9F,2.69
20,V3D,4.13
21,V3Q,3.79
22,V3N,3.09
23,V3G,3.05
24,V3E,4.74
25,V3S,3.13
26,V3H,3.86

row,Variant,protein stability index
1,V3T,3.99
2,V3C,3.75
3,V3F,3.32
4,V3M,3.5
5,V3K,4.4
6,V3P,4.43
7,E4Y,3.14
8,E4W,1.93
9,E4Q,3.21
10,E4C,2.38
11,E4K,3.35
12,E4V,2.76
13,E4T,3.17
14,E4F,1
15,E4A,4.39
16,E4D,2.19
17,E4N,3.05
18,E4G,2.92
19,E4M,1.69
20,E4P,3.86
21,D2Y,2.81
22,D2K,3.71
23,D2P,3.58
24,D2C,2.9
25,D2H,2.69
26,D2T,2.59

row,Variant,protein stability index
1,D2Q,2.62
2,D2M,3.13
3,D2A,3.91
4,D2F,3.15
5,D2V,3.2
6,D2I,1.94
7,D2L,2.56
8,K8Y,2.23
9,K8W,2.19
10,K8N,3.08
11,K8E,3.6
12,K8F,2.2
13,K8V,3.44
14,K8I,2.51
15,K8M,2.78
16,K8Q,3.34
17,K8C,3.23
18,K8H,4.25
19,K8P,4.16
20,E6R,3.65
21,E6P,4.02
22,E6S,3.21
23,E6N,3.12
24,E6G,3.25
25,E6K,3.17
26,E6C,2.9

row,Variant,protein stability index
1,E6H,2.9
2,E6M,2.05
3,P1I,2.79
4,P1Y,3
5,P1S,4.05
6,P1H,2.27
7,P1A,2.92
8,P1R,2.36
9,P1L,3.52
10,P1D,2.96
11,P1T,3.29
12,P1E,4.44
13,P1N,3.43
14,P1K,3.27
15,N5M,2.81
16,N5P,3.57
17,N5Q,3.07
18,N5F,2.62
19,N5A,3.79
20,N5W,2.95
21,N5S,2.03
22,N5Y,3.1
23,N5L,2.82
24,N5K,3.21
